The values that follow come from paper PMC7222171 (Cellular and Molecular Immunology, 2020).

The target of the assay is Con1 E2 soluble fragment, amino acids 384–661 (wild type) (Hepatitis C virus genotype 1b, Con1, UniProt Q9WMX2). Nature of the assay: ELISA.
Sequence of Con1 E2 soluble fragment, amino acids 384–661 (wild type) (Q9WMX2 384-661): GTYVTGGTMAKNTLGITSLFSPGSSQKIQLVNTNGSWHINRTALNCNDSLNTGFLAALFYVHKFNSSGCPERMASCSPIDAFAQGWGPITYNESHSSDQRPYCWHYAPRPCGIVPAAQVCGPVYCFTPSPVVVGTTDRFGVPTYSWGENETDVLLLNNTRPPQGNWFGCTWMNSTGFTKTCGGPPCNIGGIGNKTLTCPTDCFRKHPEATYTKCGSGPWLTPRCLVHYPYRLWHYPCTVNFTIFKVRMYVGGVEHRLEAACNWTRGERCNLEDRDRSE

B1: 8D6 double Cys to Ala mutant (C104A, C109A) (antibody, V domains shown)
VH: QVQLVQSGSELKKPGASLKLSCKASGYTYITPAMNWVRQAPGHGLEWMGGINTNTGNPTYAQGFAGRFVFSWDTSVSTAYLHISSLKTEDTAVYYCADTRIFSARRGTAYGGFDVWGQGTMVTVSS
VL: DIQMTQSPSSLSASVGDRITITCRASQSISNFLNWFQHRPGKAPKLLIYGATILQSGVPSRFSGSGSGTDFTLTISSLQPEDFATYYCQQSDSSTYIFGQGTKVEIK
As for B1, the binding result is reported as “binds”.

B2: AR3C double Cys mutant (double amino-acid substitution in the CX4C motif) (antibody, V domains shown)
VH: VQLLEQSGAEVKKPGSSVKVSCETSGGTFDNYALNWVRQAPGQGLEWIGGVVPLFGTTRNAQKFQGRVTISDDKSTGTGHMELRSLRSEDTAVYYCVRSVTPRYAGGGFAYGEFDYWGQGTLVTVSS
VL: EIELTQSPATLSVSPGERATLSCRASQSVSSNLAWYQQKPGQAPRLLIYGASTRATGIPARFSGSGSGTEFTLTVSRLEPEDSAVYFCQQYYRSPLTFGGGTKVEIK
As for B2, the binding result is recorded as “binds”.
